Reference: the supplement of paper PMC9170038

Experiments:
MS2 coat protein [1] = test: apparent KD of MS2 coat protein, switch OFF state (with FMN for OFF switches, without FMN for ON switches); designed switch direction (-1 OFF switch, 1 ON switch): -1; higher = weaker reporter binding; conditions: FMN input: 0 or 200 uM; Eterna round: R93 (includes R88 designs)
Outline: (§1)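 Values are apparent KD, taken as the median for each design of fits to normalised binding curves from individual clusters. The designed RNA switches were transcribed on-chip from Illumina sequencing clusters and exposed to SNAP-549-labelled MS2 coat protein at twofold increasing amounts from 0.7 or 1.5 nM to 3 µM. Titration used 100 mM Tris-HCl pH 7.5, 80 mM KCl and 4 mM MgCl2, without or with constant ligand.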

MS2 coat protein [2] = test: apparent KD of MS2 coat protein, switch ON state; designed switch direction (-1 OFF switch, 1 ON switch): -1; higher = weaker reporter binding; conditions: FMN input: 0 or 200 uM; Eterna round: R93 (includes R88 designs)
Outline: as §1

Row | Sequence | apparent KD of MS2 coat protein (MS2 coat protein [1]) | apparent KD of MS2 coat protein (MS2 coat protein [2])
1 | AAGAUGUCAGGAUAUGUGUAAAGAAUAAAAGAAAUAACAACACAGAAGGGACAUGAGGAUCACCCAUGUCAACA [May 34] | 19.8 nM | 26.9 nM
2 | AAGCUGGUAGGAUAUACUAGGGCAACUAAUGAGCCGAUAGGACAUGAGGAUCACCCAUGUAGAAGGGCCAGAAA [Mat - Exclusion 2 - JL mod - D64] | 125 nM | 74.4 nM
3 | AAGGGACAUGAGGAUCACCCAUGUCAGGAUAUCGGAAAAGGAAAAAUAAAAAAGAAGACGAGAAGGGACACCAA [Mat - Exclusion 1 - Eli mod - D77] | 32.4 nM | 38.4 nM
4 | AAGGGACAUGAGGAUCACCCAUGUCAGGAUAUGAUGCGAAUAAAGAAAGAAGAAAGCAUCAGAAGGGACACCAA [58%, Disencluded 3, 4] | 33.7 nM | 24.4 nM
5 | AAGGGACAUGAGGAUCACCCAUGUCAGGAUAUGAUGCGAAUAAAGAAAGAAUAAAGCAUCAGAAGGGACAAAAA [Mat - Exclusion 1 - Eli mod - D63] | 55.7 nM | 35.6 nM
6 | AAGGGACAUGAGGAUCACCCAUGUUAGGAUAUGCAAACAACAAACAACAAACAACAAAGCAGAAGGGACAAAAA [63%, Olong, 6] | 28.8 nM | 30.5 nM
7 | AAGUAACAUGAGGAUCACCCAUGUGAGGAUAUGAUUUAAGUUGUAAAAGUAAUAAAGGUCAGAAGGUAUGUGAA [Exclusion 1.2] | 34.7 nM | 30.9 nM
8 | AAGUAGGUAGGAUAUGCAUAGAUAUAUAUUCAUGUGGAACUACAUGAGGAUCACCCAUGUAGAAGGACCUAAUA [AJ 42] | 17.1 nM | 18.1 nM
9 | AAUAAACAUGAGGAUCACCCAUGUCAGGAUAUCCUAAAUAAAAAAAUAUAAAGAAGAAGGAGAAGGGACUAAAA [Mystem Exclusion 1] | 53.5 nM | 47.2 nM
10 | AAUAAACAUGAGGAUCACCCAUGUGAGGAUAUGGUAUAAUUAGGACAGUAAUGAUAAACCAGAAGGCACAAAUA [JR_Exc001_Sub1103] | 42.6 nM | 35.6 nM
11 | AAUAACAGAGGAUAUACGAAAAUAAGCGGAAACGCAAAGGGACAUGAGGAUCACCCAUGUAGAAGGCUGGAUAA [Tetraloop... 61% 2] | 148 nM | 28.3 nM
12 | AAUAACUGAGGAUAUACUAAAGAAAUGAAAAGAAAUAAAGAACAUGAGGAUCACCCAUGUAGAAGGCAGAAUAA [Nuya] | 30.6 nM | 32 nM
13 | AAUAAGACAGGAUAUACGAAAAUAAGCGGAAACGCAAAGGGACAUGAGGAUCACCCAUGUAGAAGGGUCGAUAA [Tetraloop... 61% 3] | 190 nM | 80.2 nM
14 | AAUAAGAGAGGAUAUACUAAAGAAAUGAAAAGAAAUAAAGAACAUGAGGAUCACCCAUGUAGAAGGCUCAAUAA [Bebnum] | 24.6 nM | 24.4 nM
15 | AAUAUCGGAGGAUAUGCAUAGAUAAAGAAUUAUGUUAAAACACAUGAGGAUCACCCAUGUAGAAGGCCGAUAAA [AJ 8] | 88 nM | 22.2 nM
16 | AAUUCACAUGAGGAUCACCCAUGUAAGGAUAUCGAAAUAAAACUAAACAAAAAACAAACGAGAAGGUACAAAAA [Exclusion 1 design 6] | 23.3 nM | 25 nM
17 | ACAAACCGAGGAUAUACAUGAGGAUCACCCAUGUAGACGAACACAUGCGUCAUCACCAGUAGAAGGUGGAAAAC [Telaandi] | 26.3 nM | 29.9 nM
18 | ACAAGAUCAGGAUAUACAUGAGGAUCACCCAUGUAUAAAAAAAAAGGGCCUUCUACAUGUAGAAGGGAUCUUGU [EX3 290: Random 26] | 19.9 nM | 14.3 nM
19 | ACAUGACAUGAGGAUCACCCAUGUGAGGAUAUGCGAAAAAAAAAAAAAAAAAAAAUUGGCAGAAGGCACAAAAU [Jean Baudrillard] | 153 nM | 202 nM
20 | ACCGAUCGAGGAUAUACAUGAGGAUCACCCAUGUAAAGCAGAAGAAAGGCCUCAGGAUGUAGAAGGCGACGCAA [JR_Exc003_Sub405] | 28.3 nM | 20.1 nM

Row | Sequence | apparent KD of MS2 coat protein (MS2 coat protein [1]) | apparent KD of MS2 coat protein (MS2 coat protein [2])
21 | ACGUAGUCAGGAUAUACGAACAUGUCAAAAGACGUGAAGGGACAUGAGGAUCACCCAUGUAGAAGGGACUACGA [Mat - Exclusion 2 - JL mod - D5] | 129 nM | 43.1 nM
22 | ACUAAUGAAGGAUAUACAAACAACAAACACUCAACACACACACAUGAGGAUCACCCAUGUAGAAGGUCAAACAU [JR_Exc002_Sub1204] | 18.2 nM | 19.2 nM
23 | AGAAAACAUGAGGAUCACCCAUGUGAGGAUAUCGAUGUCCAAGACCUGGUGCGGGACUCGAGAAGGCACUGGGA [salish99-ex1-92] | 44.8 nM | 41.4 nM
24 | AGAAAACAUGAGGAUCACCCAUGUGAGGAUAUGCGAAAAGAAAGAAAAUAAAAUAAAAGCAGAAGGUACAAAUA | 31.3 nM | 29.9 nM
25 | AGAAACCUAGGAUAUACAUGAGGAUCACCCAUGUAAAGAAAGAGGAGAGCCACAAGAAGUAGAAGGAGGAAGAA [JR_Exc003_Sub006] | 34.9 nM | 22.7 nM
26 | AGAAAGUCAGGAUAUACAGAUAAAAAAACGAAAAAAAAUCUGUAGAAGGGACAUGAGGAUCACCCAUGUAAAGA [Mat - Exclusion 4 - Mayanna - D102] | 39.2 nM | 49.4 nM
27 | AGAAAGUCAGGAUAUACGAAUAAGAAUAAAGACGAGAACGGACAUGAGGAUCACCCAUGUAGAAGGGACAAGAA [Diamond 16] | 21.8 nM | 51.6 nM
28 | AGAAAGUCAGGAUAUAUAGGAAAAAUAAAAAAAAUAAAACUAUAGAAGGGACAUGAGGAUCACCCAUGUUAAGA [Mat - Exclusion 4 - Mayanna - D133] | 17.8 nM | 34 nM
29 | AGAAAGUCAGGAUAUGCAGACAAAGCAAAAAAGCAAUGUCUGCAGAAGGGACAUGAGGAUCACCCAUGUAAAGA [Mat - Exclusion 4 - Mayanna - D117] | 47.5 nM | 50.3 nM
30 | AGAAAGUGAGGAUAUACAUGAGGAUCACCCAUGUAGAACGAGAGUUAUAAAAAUGGAAGUAGAAGGCACAAAAG [Meechl MS2 Ex3] | 32.8 nM | 28.3 nM
31 | AGAAAUACAGGAUAUACAUGGGAAAAAAAAAAAAAAAUUCUACAUGAGGAUCACCCAUGUAGAAGGGUAUUUCA [Ex2 Design 170: Random 1] | 32 nM | 48.2 nM
32 | AGAUGACAAGGAUAUACUAGGGAUGCUAGUCGAGAAGAAGAACAUGAGGAUCACCCAUGUAGAAGGUGUAAGAA [JR_Exc002_Sub1703] | 33.8 nM | 35.4 nM
33 | AGCAAACAUGAGGAUCACCCAUGUUAGGAUAUGAACGAAAAUAAAUAAAAAUAAAAGUUCAGAAGGGACGAGCA [66%, Wbt, 28] | 37.7 nM | 28.1 nM
34 | AGCAAGAGAGGAUAUACAUAGGAAAAAAAAGUCAGAUCCCUACAUGAGGAUCACCCAUGUAGAAGGCUCUGGCA [Ex2 Design 154: Sub-opt 18] | 12.2 nM | 15.1 nM
35 | AGCAAGUAAGGAUAUGCAAAGUCAGGACACACACUGACGAAGCAGAAGGUACAUGAGGAUCACCCAUGUAAGCA [Mat - Exaclusion 4 - Eli mod - D61] | 18 nM | 25.6 nM
36 | AGCAAGUCAGGAUAUACGAACAAGACAAAAGACGUGAAGGGACAUGAGGAUCACCCAUGUAGAAGGGACUAGCA [74%, Web mod - With 3 less U's] | 61.7 nM | 59.8 nM
37 | AGCAAGUUAGGAUAUGCAAAGUCAGGACACACACUGACGAAGCAGAAGGAACAUGAGGAUCACCCAUGUAAGCA [Mat - Exaclusion 4 - Eli mod - D63] | 17.1 nM | 23.5 nM
38 | AGCACGUCAGGAUAUACGAAAAAAAAGGGUAAAAAAAAGGGACAUGAGGAUCACCCAUGUAGAAGGGACAAGCA [Diamond 93] | 172 nM | 147 nM
39 | AGCACGUCAGGAUAUACGAACAAAACGGGAGAACUAAAGGGACAUGAGGAUCACCCAUGUAGAAGGGACAAGCA [Diamond 91] | 91.1 nM | 85.6 nM
40 | AGCAGUACAGGAUAUACAUGAGGAUCACCCAUGUGAAAAGAAAGUGGCGUACCACAAAGUAGAAGGGUACUGCA [Mat - Exclusion 3 - JL mod - D33] | 180 nM | 27.9 nM
